B1: LMJ1.2C (VHH)
VHH: QVQLVETGGGLVQAGGSLRLSCAASGSTFSHSAGGWYRQAPEKQRELVAGIRSDGNINYADSVKDRFTISRDNASNTMYLQMNNLKPEDTAVYVCNIRGSYGNTYYSRWGQGTQVTVSS
modifications: sortase-tagged with biotin in the Western blots ; Purified by a his-tag for BLI and sortase-tagged with biotin in the Western blots. The tag letters are not stated for the free nanobody, so they are left out.
notes: First round of yeast display; Expressed in E. coli, his-tag purified
B2: LMJ2.6A (VHH)
VHH: RVQLVETGGGLVQAGGSLRLSCAVSGRTFSHSAGGWYRQAPEKQRELVAGIRSDGNINYADSVKDRFTISRDNASNTMYLQMNNLKPGDTAVYVCNIRGSYGNTYYSRWGQGTQVTVSS
modifications: sortase-tagged with biotin in the Western blots ; Purified by a his-tag for BLI and sortase-tagged with biotin in the Western blots. The tag letters are not stated for the free nanobody, so they are left out.
notes: Second round of yeast display; Expressed in E. coli, his-tag purified
B3: LMJ1.3J (VHH)
VHH: QVQLVGTGGGLVQAGGSLRLSCAASGSTFSHSAGGWYRQAPEKQRELVAGISSAGNINYADSVKDRFTISRDNASNTMYLQMNNLKPEDTAVYVCNIRGSYGNTYYSRWGQGTQVTVSS
modifications: sortase-tagged with biotin in the Western blots ; Purified by a his-tag for BLI and sortase-tagged with biotin in the Western blots. The tag letters are not stated for the free nanobody, so they are left out.
notes: as for B1
B4: LMJ1.2G (VHH)
VHH: QVQLVETGGGLVQAGGSLRLSCAASGSTFSHSAGGWYRQAPEKQRELVAGIGSDGNINYADSVKDRFTISRDNASNTMYLQMNNLKPEDTAVYVCNIRGSYGNTYYSRWGQGTQVTVSS
modifications: sortase-tagged with biotin in the Western blots ; Purified by a his-tag for BLI and sortase-tagged with biotin in the Western blots. The tag letters are not stated for the free nanobody, so they are left out.
notes: as for B1
B5: LMJ2.5G (VHH)
VHH: QVQLVETEGGLVQAGGSLRLSCAASGSTFSHSAGGWYRQAPEKQRELVAGIRSDGNINYADSVKDRFTISRDNASNTMYLQMNNLKPEDTAVYVCNIRGSYGNTYYSRWGQGTQVTVSS
modifications: sortase-tagged with biotin in the Western blots ; Western blots used the nanobody sortase-tagged with biotin at a terminus. The BLI material was his-tag purified. Tag letters are not stated for the stand-alone nanobody and are left out.
notes: as for B2
B6: LMJ2.5C (VHH)
VHH: QVQLVETGGGLVQAGGSLRLSCAASGSTFSHSAGGWYRQAPEKQRELVAGVRSDGNINYADSVKDRFTISRDNASNTMYLQMNNLKPEDTAVYVCNIRGSYGNTYYSRWGQGIQVTVSS
modifications: sortase-tagged with biotin in the Western blots ; Purified by a his-tag for BLI and sortase-tagged with biotin in the Western blots. The tag letters are not stated for the free nanobody, so they are left out.
notes: as for B2
B7: LMJ2.5J (VHH)
VHH: QVQLVETRGGLVQAGGSLRLSCAVSGSTFSHSAGGWYRQAPEKQRELVAGIGSAGNINYADSVKDRFTISRDNASNTMYLQMNNLKPEDTAVYVCNIRGSYGNTYYSRWGQGTQVTVSS
modifications: sortase-tagged with biotin in the Western blots ; Western blots used the nanobody sortase-tagged with biotin at a terminus. The BLI material was his-tag purified. Tag letters are not stated for the stand-alone nanobody and are left out.
notes: as for B2
B8: LMJ2.5H (VHH)
VHH: QVQLVETGGGLVQAGGSLRLSCAVSGSTFSHSAGGWYRQAPEKQRELVAGIRSDGNINYADSVKDRFTISRDNASNTMYLQMNNLKPEDTAVYVCNIRGSYGNTYYSRWGQGTQVTVSS
modifications: sortase-tagged with biotin in the Western blots ; Western blots used the nanobody sortase-tagged with biotin at a terminus. The BLI material was his-tag purified. Tag letters are not stated for the stand-alone nanobody and are left out.
notes: as for B2
B9: LMJ2.4C (VHH)
VHH: QVQLVEAGGGLVQAGGSLRLSCAASGSTFSHSAGGWYRQAPEKQRELVAGIRSDGNINYADSVKDRFTISRDNASNTMYLQMNNLKPEDTAVYVCNIRGSYGNTYYSRWGQGIQVTVSS
modifications: sortase-tagged with biotin in the Western blots ; Purified by a his-tag for BLI and sortase-tagged with biotin in the Western blots. The tag letters are not stated for the free nanobody, so they are left out.
notes: as for B2
B10: LMJ2.5I (VHH)
VHH: RVQLVETGGGLVQAGGSLRLSCAVSGSTFSHSAGGWYRQAPEKQRELVAGIRSDGNINYADSVKDRFTISRDNASNTMYLQMNNLKPEDTAVYVCNIRGSYGNTYYSRWGQGAQVTVSS
modifications: sortase-tagged with biotin in the Western blots ; Purified by a his-tag for BLI and sortase-tagged with biotin in the Western blots. The tag letters are not stated for the free nanobody, so they are left out.
notes: as for B2

Molecular target: human plasma fibronectin (human, UniProt P02751-8 32-2296, limits assumed)
Sequence (P02751 other isoform, or with tags, fused parts or gaps limits assumed): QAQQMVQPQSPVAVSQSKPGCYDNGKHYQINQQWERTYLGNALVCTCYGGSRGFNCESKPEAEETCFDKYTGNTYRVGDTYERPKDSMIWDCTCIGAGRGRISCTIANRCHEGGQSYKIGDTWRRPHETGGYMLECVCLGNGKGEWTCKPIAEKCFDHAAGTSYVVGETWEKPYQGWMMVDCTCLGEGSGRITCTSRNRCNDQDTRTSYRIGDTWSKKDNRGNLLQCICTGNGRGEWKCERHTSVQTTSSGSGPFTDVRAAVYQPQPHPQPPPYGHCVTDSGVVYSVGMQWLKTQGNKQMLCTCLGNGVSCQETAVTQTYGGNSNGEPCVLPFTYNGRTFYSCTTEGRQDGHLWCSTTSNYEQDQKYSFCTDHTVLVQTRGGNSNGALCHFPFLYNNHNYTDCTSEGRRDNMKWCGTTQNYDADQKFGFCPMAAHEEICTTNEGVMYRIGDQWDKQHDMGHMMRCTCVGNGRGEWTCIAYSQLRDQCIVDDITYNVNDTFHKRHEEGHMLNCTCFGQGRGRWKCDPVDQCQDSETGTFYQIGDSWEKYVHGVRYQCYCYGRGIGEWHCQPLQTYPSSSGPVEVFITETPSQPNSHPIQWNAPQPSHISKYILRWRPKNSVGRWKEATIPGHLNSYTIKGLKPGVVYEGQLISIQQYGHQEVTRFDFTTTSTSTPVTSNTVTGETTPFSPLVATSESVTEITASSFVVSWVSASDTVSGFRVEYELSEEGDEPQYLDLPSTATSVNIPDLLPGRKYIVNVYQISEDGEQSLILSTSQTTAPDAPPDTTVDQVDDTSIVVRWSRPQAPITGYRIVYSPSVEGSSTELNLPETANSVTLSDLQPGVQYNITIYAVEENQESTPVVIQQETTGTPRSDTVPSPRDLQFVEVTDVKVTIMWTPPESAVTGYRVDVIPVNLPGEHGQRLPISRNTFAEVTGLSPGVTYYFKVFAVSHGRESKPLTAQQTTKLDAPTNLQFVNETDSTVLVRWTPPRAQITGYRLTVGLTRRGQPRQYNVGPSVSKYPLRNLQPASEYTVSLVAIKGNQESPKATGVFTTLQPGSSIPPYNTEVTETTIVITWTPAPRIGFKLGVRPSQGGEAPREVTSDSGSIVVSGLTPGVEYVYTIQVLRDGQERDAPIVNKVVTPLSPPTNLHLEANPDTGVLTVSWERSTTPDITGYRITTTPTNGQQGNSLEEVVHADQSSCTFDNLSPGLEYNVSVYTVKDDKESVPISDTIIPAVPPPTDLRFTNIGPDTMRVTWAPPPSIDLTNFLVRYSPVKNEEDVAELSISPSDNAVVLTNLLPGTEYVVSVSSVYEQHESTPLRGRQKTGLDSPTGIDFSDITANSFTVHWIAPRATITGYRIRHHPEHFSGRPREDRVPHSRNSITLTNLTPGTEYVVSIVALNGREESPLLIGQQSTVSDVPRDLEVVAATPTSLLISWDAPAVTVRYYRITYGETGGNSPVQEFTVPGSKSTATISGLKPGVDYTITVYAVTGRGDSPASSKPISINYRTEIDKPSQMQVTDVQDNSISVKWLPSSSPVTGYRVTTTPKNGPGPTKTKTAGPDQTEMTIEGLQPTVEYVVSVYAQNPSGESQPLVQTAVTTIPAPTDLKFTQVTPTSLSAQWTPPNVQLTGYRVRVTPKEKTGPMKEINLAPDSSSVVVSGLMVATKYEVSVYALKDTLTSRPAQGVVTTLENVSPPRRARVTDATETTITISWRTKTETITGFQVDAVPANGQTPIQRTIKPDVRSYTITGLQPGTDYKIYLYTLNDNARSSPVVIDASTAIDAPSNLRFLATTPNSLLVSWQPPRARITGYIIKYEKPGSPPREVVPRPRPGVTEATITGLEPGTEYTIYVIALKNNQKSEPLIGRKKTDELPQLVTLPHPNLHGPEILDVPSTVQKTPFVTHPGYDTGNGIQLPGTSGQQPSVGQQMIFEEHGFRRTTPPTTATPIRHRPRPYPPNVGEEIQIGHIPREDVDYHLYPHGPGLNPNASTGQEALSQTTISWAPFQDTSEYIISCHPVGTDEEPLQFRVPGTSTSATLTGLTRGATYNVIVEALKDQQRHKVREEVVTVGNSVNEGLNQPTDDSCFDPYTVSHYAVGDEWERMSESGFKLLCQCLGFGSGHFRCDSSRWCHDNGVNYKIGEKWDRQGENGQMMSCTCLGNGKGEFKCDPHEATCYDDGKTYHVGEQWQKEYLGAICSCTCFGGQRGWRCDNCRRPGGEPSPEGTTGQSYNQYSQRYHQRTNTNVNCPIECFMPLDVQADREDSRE
Assay: Western blot, biotin-tagged nanobody

Binding result, no binding:
B1
B2
B3
B4
B5
B6
B7
B8
B9
B10
